Target: F-actin (UniProt P68135)
Assay: cryoEM (raw images and 2D image averages); full-length myosin-5a with F-actin free in solution, flash frozen in the presence of ATP, low calcium concentration, no cargo adaptor molecules; 1 myosin molecule per 2.5 actin subunits

Question: With “full-length myosin-5a (from UniProt Q99104 1-1853; P0DP26 1-149) (complex)” as the substance, how does the percent of myosin molecules attached (from counts per um actin) read?
Answer: < 10%

Question: And the percent of observed myosin molecules attached by both heads to one actin filament?
Answer: 55%

Reference: publication doi:10.1101/2023.07.16.549178
